Laboratory results from US20180319872A1.

What was measured:
[1] = target: Clostridium difficile toxin B (TcdB) (Clostridium difficile) (UniProt P18177); test: ELISA on plates coated with 1 ug/ml TcdB (TxB), OD450
[2] = target: Clostridium difficile toxin A (TcdA) (Clostridium difficile) (UniProt P16154); test: cell-based or functional assay
[3] = target: Clostridium difficile toxin A (TcdA) (Clostridium difficile) (UniProt P16154); test: ELISA on plates coated with 1 ug/ml TcdA (TxA), OD450

Clostridium difficile toxin A (TcdA) (Clostridium difficile), sequence (P16154 whole entry): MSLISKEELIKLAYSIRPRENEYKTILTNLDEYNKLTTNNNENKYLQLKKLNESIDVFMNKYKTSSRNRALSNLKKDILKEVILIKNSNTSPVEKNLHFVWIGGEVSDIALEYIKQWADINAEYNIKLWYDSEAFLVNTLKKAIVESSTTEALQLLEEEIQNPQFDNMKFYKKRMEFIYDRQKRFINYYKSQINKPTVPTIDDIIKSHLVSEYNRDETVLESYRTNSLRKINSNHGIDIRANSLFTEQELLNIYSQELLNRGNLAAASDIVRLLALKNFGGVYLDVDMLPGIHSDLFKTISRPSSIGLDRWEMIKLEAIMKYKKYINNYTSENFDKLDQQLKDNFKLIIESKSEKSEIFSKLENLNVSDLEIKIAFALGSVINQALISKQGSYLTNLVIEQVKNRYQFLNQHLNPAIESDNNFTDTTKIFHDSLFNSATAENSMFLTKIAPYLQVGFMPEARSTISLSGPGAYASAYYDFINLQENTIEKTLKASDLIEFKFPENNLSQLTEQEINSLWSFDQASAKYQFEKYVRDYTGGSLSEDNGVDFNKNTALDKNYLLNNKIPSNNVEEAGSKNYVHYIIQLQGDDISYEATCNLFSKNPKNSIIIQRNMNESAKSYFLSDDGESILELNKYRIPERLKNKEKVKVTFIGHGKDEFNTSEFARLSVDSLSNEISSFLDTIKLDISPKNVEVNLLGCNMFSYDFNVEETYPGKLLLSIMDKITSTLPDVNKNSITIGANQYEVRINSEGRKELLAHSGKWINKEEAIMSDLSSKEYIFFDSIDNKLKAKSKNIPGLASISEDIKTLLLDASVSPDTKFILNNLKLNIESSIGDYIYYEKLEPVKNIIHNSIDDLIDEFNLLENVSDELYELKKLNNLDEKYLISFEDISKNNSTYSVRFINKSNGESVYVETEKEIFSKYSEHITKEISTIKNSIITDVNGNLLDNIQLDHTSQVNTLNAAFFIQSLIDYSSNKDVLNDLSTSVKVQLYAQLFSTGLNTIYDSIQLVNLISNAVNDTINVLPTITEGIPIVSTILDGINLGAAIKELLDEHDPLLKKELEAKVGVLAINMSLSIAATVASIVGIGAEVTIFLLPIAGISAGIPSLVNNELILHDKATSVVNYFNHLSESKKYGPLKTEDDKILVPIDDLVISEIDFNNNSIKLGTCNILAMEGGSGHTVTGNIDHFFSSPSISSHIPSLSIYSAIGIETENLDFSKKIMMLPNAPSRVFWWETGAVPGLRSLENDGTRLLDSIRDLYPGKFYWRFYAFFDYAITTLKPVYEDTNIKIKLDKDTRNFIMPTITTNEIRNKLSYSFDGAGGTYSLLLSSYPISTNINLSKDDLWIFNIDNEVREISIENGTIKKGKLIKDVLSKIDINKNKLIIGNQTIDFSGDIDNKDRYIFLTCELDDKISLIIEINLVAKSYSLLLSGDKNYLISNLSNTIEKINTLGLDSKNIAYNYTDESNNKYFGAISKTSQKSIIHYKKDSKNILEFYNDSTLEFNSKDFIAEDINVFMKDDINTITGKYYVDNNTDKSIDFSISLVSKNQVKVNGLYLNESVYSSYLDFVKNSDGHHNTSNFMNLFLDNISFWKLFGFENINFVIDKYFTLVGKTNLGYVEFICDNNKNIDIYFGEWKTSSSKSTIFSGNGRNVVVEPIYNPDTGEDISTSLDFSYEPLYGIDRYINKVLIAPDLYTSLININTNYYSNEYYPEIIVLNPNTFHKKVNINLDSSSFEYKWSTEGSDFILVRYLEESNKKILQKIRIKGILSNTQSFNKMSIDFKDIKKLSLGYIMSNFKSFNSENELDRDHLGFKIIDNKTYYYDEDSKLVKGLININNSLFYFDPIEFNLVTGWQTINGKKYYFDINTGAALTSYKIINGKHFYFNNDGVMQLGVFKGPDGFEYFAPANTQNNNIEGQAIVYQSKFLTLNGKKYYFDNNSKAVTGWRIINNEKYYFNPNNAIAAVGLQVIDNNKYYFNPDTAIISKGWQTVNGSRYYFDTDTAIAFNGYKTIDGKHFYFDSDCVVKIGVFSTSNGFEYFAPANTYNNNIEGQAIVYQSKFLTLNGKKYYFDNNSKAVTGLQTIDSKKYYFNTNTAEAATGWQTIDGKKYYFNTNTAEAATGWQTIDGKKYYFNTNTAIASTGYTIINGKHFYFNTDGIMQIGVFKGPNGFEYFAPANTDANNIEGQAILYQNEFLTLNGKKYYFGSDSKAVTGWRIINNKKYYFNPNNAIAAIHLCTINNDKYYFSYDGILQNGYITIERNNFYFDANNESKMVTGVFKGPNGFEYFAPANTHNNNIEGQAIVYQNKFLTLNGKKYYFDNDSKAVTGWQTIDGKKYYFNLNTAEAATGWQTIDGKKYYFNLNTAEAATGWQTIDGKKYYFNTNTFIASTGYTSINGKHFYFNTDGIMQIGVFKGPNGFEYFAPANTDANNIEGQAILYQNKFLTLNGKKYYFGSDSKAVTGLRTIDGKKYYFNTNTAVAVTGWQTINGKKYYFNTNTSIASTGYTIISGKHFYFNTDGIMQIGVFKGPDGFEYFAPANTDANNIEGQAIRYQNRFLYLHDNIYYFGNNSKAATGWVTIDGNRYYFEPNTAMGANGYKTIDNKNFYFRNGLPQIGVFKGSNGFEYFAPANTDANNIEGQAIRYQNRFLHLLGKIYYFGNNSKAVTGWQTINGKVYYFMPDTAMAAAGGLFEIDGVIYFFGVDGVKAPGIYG
Clostridium difficile toxin B (TcdB) (Clostridium difficile), sequence (P18177 2-2366 limits assumed): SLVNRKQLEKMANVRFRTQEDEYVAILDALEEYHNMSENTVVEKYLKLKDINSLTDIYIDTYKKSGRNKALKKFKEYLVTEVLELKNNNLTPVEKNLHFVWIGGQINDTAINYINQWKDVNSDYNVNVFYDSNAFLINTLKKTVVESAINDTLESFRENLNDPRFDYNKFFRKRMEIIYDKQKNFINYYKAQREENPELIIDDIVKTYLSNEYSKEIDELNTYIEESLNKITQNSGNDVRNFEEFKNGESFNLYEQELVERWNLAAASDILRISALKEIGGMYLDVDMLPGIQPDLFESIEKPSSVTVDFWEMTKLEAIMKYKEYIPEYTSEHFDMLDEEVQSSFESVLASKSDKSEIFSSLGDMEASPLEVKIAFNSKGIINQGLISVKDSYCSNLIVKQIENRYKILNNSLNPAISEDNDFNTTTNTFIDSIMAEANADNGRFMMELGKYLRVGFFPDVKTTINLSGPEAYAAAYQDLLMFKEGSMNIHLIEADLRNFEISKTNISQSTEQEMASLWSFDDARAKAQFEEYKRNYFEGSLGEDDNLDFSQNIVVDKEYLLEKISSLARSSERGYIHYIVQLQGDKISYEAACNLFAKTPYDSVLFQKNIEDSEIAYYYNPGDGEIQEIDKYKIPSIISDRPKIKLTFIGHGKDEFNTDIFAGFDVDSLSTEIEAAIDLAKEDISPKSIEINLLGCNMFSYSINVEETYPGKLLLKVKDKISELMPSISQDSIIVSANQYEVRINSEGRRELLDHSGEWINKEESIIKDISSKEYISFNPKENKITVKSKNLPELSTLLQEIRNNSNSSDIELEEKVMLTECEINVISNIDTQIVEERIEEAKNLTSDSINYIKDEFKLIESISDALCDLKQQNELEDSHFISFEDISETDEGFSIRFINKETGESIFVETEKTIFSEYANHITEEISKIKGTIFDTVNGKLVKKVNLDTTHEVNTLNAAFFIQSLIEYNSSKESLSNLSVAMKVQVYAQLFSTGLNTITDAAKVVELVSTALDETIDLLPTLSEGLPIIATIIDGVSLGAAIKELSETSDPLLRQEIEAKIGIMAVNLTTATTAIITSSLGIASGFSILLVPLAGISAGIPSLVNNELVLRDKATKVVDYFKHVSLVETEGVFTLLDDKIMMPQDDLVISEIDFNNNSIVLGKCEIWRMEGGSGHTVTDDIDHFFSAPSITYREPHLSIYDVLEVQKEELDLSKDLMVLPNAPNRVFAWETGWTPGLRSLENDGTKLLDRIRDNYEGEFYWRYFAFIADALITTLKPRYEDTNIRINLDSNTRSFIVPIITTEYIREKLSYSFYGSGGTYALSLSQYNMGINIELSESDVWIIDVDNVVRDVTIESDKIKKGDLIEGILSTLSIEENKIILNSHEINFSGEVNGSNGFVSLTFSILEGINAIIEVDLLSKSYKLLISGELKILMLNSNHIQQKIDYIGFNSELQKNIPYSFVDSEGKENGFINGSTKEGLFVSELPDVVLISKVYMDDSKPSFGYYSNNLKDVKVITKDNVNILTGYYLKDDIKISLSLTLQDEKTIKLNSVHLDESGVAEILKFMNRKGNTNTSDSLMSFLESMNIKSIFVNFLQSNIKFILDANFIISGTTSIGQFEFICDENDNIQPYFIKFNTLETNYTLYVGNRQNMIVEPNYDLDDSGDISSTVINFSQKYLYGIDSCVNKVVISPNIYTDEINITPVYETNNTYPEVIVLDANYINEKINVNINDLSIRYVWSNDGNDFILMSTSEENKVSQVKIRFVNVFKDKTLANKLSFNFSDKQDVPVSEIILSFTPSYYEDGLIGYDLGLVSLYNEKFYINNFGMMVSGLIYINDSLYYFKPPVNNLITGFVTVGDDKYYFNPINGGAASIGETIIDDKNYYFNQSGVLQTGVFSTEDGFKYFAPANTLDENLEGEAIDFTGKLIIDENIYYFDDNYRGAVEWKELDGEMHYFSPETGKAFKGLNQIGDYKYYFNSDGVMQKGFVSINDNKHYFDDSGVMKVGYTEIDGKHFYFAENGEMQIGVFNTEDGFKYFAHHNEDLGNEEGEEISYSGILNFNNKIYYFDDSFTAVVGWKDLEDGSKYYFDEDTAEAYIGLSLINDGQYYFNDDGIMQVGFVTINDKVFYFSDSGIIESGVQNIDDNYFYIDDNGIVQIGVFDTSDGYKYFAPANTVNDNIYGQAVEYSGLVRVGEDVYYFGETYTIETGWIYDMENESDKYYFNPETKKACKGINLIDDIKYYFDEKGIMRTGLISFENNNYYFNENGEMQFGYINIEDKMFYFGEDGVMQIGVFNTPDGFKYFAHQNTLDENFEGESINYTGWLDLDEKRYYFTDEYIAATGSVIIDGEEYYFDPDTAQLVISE

Substance | EC50 (read off the curve) [1] | minimal dose protecting Vero cells from TcdA-induced cell rounding (5 ng/ml TcdA) [2] | EC50 (read off the curve) [3]
Merc Ab (antibody) | 10 ng/mL | – | –
Merck anti-TcdA human monoclonal antibody (actoxumab) | – | > 10 nM | 2 ng/mL
